Test results taken from article PMC8266636, “Rrp1 translocase and ubiquitin ligase activities restrict the genome destabilising effects of Rad51 in fission yeast” (Nucleic Acids Research, 2020).
Blank lines part the entries; values can stand above or below the binder they belong to.

Columns and labels:
Rad51 = target: T1, Rad51 (Schizosaccharomyces pombe, UniProt P36601 1-365); test: fluorescence anisotropy; 2 mM ATP; 3.5 mM Mg2+; 6 uM Rad51; scavenger ssDNA for koff; EMSA: 25 mM HEPES pH 7.5, 1 mM DTT, 60 mM KCl, 2 mM ATP, 3.5 mM MgCl2, 5% glycerol, 37 C, 0.2% glutaraldehyde; anisotropy: 30 mM HEPES pH 7.5, 1 mM DTT, 50 mM NaCl, 100 mM KCl, 2 mM ATP, 8 mM PC, 8 U/ml CPK, 3.5 mM MgCl2, 2.5% glycerol, 37 C; conditions: protein: recombinant; label: 5'-TAMRA on 16A(-); blunt
T1 sequence: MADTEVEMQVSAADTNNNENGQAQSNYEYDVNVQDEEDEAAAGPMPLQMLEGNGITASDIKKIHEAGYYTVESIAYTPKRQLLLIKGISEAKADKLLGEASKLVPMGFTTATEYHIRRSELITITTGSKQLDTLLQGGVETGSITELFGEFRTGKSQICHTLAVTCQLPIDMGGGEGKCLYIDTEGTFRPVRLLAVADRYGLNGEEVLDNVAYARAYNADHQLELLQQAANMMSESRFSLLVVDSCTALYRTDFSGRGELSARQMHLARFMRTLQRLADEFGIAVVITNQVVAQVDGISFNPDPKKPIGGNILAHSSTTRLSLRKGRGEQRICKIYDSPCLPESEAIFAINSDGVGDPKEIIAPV

[1] = target: T2, Rrp1-FLAG (purified recombinant) (S. pombe, UniProt O13762 1-897); test: co-IP; purified Rad51 and FLAG-tagged Rrp1 (250 nM each) in IP buffer (35 mM Tris-HCl pH 7.5, 1 mM DTT, 100 mM NaCl, 3.5 mM MgCl2, 0.1% NP-40, 5% glycerol), 30 min at 30°C; precipitated with anti-FLAG M2 affinity gel 2 h at 4°C, eluted with 3xFLAG peptide, western blot; conditions: both partners purified
T2 construct: Rrp1 of Schizosaccharomyces pombe, rrp1+ in pGEX-6P; only the former was removed'; read here as GST-Rrp1-3xFLAG; GST removed with HRV-3C protease; also called purified Rrp1-FLAG; FLAG-tagged Rrp1; source: E. coli Rosetta, from pGEX-6P, purified (GSH sepharose, HiTrap Heparin, Resource Q, HiTrap SP); not shown: GST, N-terminal, cleaved; 3xFLAG, C-terminal, kept
T2 sequence (looked up): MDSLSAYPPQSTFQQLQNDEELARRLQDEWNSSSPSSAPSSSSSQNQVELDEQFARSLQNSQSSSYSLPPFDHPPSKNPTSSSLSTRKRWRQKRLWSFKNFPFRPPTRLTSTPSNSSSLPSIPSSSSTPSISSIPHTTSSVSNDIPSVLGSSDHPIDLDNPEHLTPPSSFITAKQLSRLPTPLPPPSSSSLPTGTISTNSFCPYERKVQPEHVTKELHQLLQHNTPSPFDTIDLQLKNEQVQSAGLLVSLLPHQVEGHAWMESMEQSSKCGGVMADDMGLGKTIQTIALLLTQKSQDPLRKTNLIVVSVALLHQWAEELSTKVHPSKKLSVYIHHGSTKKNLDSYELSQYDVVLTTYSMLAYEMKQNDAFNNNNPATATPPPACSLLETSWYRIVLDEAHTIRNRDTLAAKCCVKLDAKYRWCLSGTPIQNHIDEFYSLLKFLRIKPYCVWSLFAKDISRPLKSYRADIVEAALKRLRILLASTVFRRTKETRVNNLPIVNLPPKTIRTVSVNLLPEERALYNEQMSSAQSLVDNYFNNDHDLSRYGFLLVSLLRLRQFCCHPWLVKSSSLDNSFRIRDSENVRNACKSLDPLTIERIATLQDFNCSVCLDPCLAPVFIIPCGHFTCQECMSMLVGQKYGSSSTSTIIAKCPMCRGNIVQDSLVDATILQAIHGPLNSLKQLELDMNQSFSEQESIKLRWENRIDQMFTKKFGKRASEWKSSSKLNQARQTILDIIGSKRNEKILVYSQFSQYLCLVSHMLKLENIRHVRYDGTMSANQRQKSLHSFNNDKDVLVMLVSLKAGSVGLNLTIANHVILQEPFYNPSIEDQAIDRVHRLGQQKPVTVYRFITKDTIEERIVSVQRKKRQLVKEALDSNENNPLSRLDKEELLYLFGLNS

Rrp1;Rad51 = target: T3, Rrp1;Rad51 (Schizosaccharomyces …, UniProt O13762;P36601 1-897;1-365, |); test: fluorescence anisotropy; 2 mM ATP; 3.5 mM Mg2+; scavenger PhiX174 ssDNA; EMSA: 25 mM HEPES pH 7.5, 1 mM DTT, 60 mM KCl, 2 mM ATP, 3.5 mM MgCl2, 5% glycerol, 37 C, 0.2% glutaraldehyde; anisotropy: 30 mM HEPES pH 7.5, 1 mM DTT, 50 mM NaCl, 100 mM KCl, 2 mM ATP, 8 mM PC, 8 U/ml CPK, 3.5 mM MgCl2, 2.5% glycerol, 37 C; conditions: protein: recombinant;recombinant; tags: 3xFLAG (methods: N-terminal 3xFLAG and C-terminal GST, but construct named GST-Rrp1-FLAG); GST removed by HRV-3C;; single strand
T3 sequence 1: T2 sequence (looked up)
T3 sequence 2: T1 sequence

B1: 16A(-)/16A(+) 83-mer dsDNA (dsDNA)
DNA 1: AAATGAACATAAAGTAAATAAGTATAAGGATAATACAAAATAAGTAAATGAATAAACATAGAAAATAAAGTAAAGGATATAAA
DNA 2: TTTATATCCTTTACTTTATTTTCTATGTTTATTCATTTACTTATTTTGTATTATCCTTATACTTATTTACTTTATGTTCATTT
binding result (Rad51): binds

binding result [1]: binds
B2: Rad51 (purified) (natural protein, S. pombe, UniProt P36601 1-365, looked up)
chain: T1 sequence
notes: Rad51 of Schizosaccharomyces pombe; also called purified Rad51

B3: oligo-dT 72-mer (ssDNA)
DNA: TTTTTTTTTTTTTTTTTTTTTTTTTTTTTTTTTTTTTTTTTTTTTTTTTTTTTTTTTTTTTTTTTTTTTTTT
binding result (Rrp1;Rad51): binds
